Read-outs that look alike come from different tables or passages of the source.
T1: monkey CD3ε protein (monkey, UniProt Q95LI5 22-117, limits assumed)
T1 sequence (looked up): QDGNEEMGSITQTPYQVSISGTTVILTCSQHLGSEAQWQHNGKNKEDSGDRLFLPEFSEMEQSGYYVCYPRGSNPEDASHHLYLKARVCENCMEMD


What was measured:
[1] = target: T2, human CD3 on the cell surface (Jurkat cells, expanded human T cells, Jurkat-Lucia NFAT cells, human PBMC) (human, UniProt P07766 23-207; P04234 22-171; P09693 23-182); test: FACS, expanded human T cells
T2 construct: whole, on cells; Endogenous CD3 within the TCR-CD3 complex on cells (also zeta chains and TCR); the cell type is named under assay
Method: (§1) The binding of the chimeric antibodies to CD3 on the cell surface was analyzed by detecting the binding of the antibodies to Jurkat cells and human T cells. Suspension cells Jurkat cells were scale-up cultured in T-75 cell culture flasks to the logarithmic growth phase, the supernatant of the medium was discarded by centrifugation, and the cell pellet was washed 2 times with PBS for later use. The expanded human T cells were washed 2 times with PBS for later use. After counting the cells in the previous step, the cell pellet was resuspended with [PBS+2% (w/w) BSA] blocking solution to 4×10⁶ cells/ml, and added to a 96-well FACS reaction plate at 50 μl/well, and then the chimeric antibody to be tested was added at 50 μl/well, and incubated at 4° C. for 1 h. The cells were centrifuged and washed 3 times with a PBS buffer. […] The cells were centrifuged and washed 5 times with PBS, and FACS (FACS Canto™, purchased from BD Company) was used for detection and result analysis. Data analysis was performed by software (CellQuest) to obtain the mean fluorescence […] (MFI) of the cells. And then software (GraphPad Prism8) was used for analysis, data fitting, and EC50 value calculation. The same method was used to simultaneously detect the binding of the chimeric antibodies to endogenous CD3 negative cells MOLT4 cells.

[2] = target: T2, human CD3 on the cell surface (Jurkat …); test: FACS, expanded human T cells; remark: listed apart in the source
Method: as §1

[3] = target: T3, recombinant human CD3ε-ECD His protein (human, UniProt P07766 23-126); test: ELISA, coated antigen
T3 construct: extracellular domain; also called human CD3ε-His; CD3ε antigen protein; not shown: His tag
Method: (§2) To detect the binding activity of the humanized antibodies to CD3 protein, CD3 protein was diluted with PBS to the final concentration of […], then added to a 96-well ELISA plate at 50 μL/well, and the plate was sealed with a plastic film, and incubated overnight at 4° C. On the next day, the plate was washed 2 times with PBS, and a blocking solution [PBS+2% (v/v) BSA] was added for blocking at room temperature for 2 h. The blocking solution was poured off, and the antibody (initial concentration of 100 nM, and gradient dilution at 1:10) or a negative control antibody was added at 50 µl/well. After incubation at 37° C. for 2 h, the plate was washed 3 times with PBS. […] TMB substrate was added at 50 μl/well, and incubated at room temperature for 10 min, and then a stop solution (1.0 N HCl) was added at 50 μl/well. The OD450 nm values were read by an ELISA microplate reader (Multimode Plate Reader, EnSight, purchased from Perkin Elmer).

human CD3ε/δ-His = target: T4, human CD3ε/δ-His (human, UniProt P07766 23-126; P04234 22-105); test: ELISA, coated antigen
T4 construct: Bought recombinant heterodimer with His tag; also called human CD3ε/δ protein
Method: as §2

[4] = target: T5, cynomolgus monkey CD3 on the surface of expanded monkey T cells (cynomolgus monkey, UniProt Q95LI5 22-198; Q95LI8 22-171; Q95LI7 23-181); test: FACS, expanded monkey T cells
T5 construct: whole, on cells; Endogenous CD3 within the TCR-CD3 complex on T cells expanded from cynomolgus monkey PBMC
Method: as §1
(§3) FACS detection and data analysis were performed on the cryopreserved monkey T cells of Example 2.4 according to the method in Example 5.1.

[5] = target: T5, cynomolgus monkey CD3 on the surface of …; test: FACS, expanded monkey T cells, 4 nM antibody
Method: as §1, §3

[6] = target: T5, cynomolgus monkey CD3 on the surface of …; test: FACS, expanded monkey T cells; remark: listed apart in the source
Method: as §1, with “MOLT4 cells. […]” for “MOLT4 cells.”

[7] = target: T5, cynomolgus monkey CD3 on the surface of …; test: FACS, expanded monkey T cells; remark: listed apart in the source
Method: as §1, §3

monkey CD3ε/δ-His = target: T6, monkey CD3ε/δ-His (monkey, UniProt Q95LI5 22-117; Q95LI8 22-105); test: ELISA, coated antigen
T6 construct: Bought recombinant heterodimer with His tag

monkey CD3ε protein = target: T1, monkey CD3ε protein; test: ELISA, coated antigen
[8] = target: T2, human CD3 on the cell surface (Jurkat …); test: FACS, expanded human T cells; remark: listed apart in the source

T2 sequence (P07766 23-207, chain 1 of 3): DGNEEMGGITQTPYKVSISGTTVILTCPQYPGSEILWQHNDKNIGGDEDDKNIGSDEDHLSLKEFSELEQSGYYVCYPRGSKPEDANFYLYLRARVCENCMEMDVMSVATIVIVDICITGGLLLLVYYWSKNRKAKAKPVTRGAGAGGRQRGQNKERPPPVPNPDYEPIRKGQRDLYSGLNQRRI
T2 sequence (P04234 22-171, chain 2 of 3): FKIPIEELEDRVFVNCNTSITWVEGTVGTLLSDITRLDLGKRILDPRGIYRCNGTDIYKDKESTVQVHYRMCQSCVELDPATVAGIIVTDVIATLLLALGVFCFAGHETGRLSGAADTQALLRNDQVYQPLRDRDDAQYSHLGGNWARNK
T2 sequence (P09693 23-182, chain 3 of 3): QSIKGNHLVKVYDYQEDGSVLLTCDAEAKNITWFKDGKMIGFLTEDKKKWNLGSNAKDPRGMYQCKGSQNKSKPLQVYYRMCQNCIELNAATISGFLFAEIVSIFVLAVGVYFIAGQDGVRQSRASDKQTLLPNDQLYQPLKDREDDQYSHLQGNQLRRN
T4 sequence (P07766 23-126, stated change not applied, form in doubt, chain 1 of 2): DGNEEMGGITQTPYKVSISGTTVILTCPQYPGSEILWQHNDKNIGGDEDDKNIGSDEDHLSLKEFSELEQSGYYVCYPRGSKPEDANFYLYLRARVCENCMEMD
T4 sequence (P04234 22-105, stated change not applied, form in doubt, chain 2 of 2): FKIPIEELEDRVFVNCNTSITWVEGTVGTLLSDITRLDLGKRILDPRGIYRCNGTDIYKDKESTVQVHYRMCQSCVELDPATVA
T3 sequence (P07766 23-126): as the sequence (P07766 23-126, stated change not applied, form in doubt, chain 1 of 2) above
T5 sequence (Q95LI5 22-198, chain 1 of 3): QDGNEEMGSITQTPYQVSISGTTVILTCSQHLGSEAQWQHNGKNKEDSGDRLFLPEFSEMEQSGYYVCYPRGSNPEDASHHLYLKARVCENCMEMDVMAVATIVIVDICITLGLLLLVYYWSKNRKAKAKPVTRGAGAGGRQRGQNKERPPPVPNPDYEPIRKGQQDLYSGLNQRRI
T5 sequence (Q95LI8 22-171, chain 2 of 3): as the sequence (P04234 22-171, chain 2 of 3) above, with I5V, N15K, I20V, S32T, D33N, I34N, T64A, S74N, V83L, H141R counted along it
T5 sequence (Q95LI7 23-181, chain 3 of 3): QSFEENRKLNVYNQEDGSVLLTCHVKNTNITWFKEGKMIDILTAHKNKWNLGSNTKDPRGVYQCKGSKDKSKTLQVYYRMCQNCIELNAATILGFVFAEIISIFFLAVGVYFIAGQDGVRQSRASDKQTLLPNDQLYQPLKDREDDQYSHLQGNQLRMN

Row | EC50 [1] [nM] | MFI_Max [1] [MFI] | EC50 [2] [nM] | MFI_Max [2] [MFI] | max-OD450 [3] [OD450] | max-OD450 (human CD3ε/δ-His) [OD450] | MFI at antibody concentration 4 nM [5] [MFI] | max-OD450 (monkey CD3ε/δ-His) [OD450] | max-OD450 (monkey CD3ε protein) [OD450] | EC50 [8] [nM] | max_MFI [8] [MFI] | Binder | further results
1 | 0.7 | 12300 | 0.46 | 40900 | 3.09 | 2.83 | 41000 | 2.52 | 2.96 | 2.09 | 33500 | 40G5c-hIgG1 (antibody, V domains shown) VH: EVQLVQSGAEVKKPGASVKVSCKASGYTFTNYYIHWVRQAPGQGLEWIGWIYPGDGNTKYNEKFKGRATLTADTSTSTAYLELSSLRSEDTAVYYCARDSYSNYYFDYWGQGTLVTVSS VL: DIVMTQSPDSLAVSLGERATINCKSSQSLLNSRTRKNYLAWYQQKPGQPPKLLIYWASTRESGVPDRFSGSGSGTDFTLTISSLQAEDVAVYYCTQSFILRTFGQGTKVEIKR | EC50 [3]: 0.118 nM; EC50 (human CD3ε/δ-His): 0.36 nM; EC50 [4]: 0.28 nM; MFI_Max [4]: 66000 MFI; EC50 [6]: 0.53 nM; EC50 [7]: 0.63 nM; MFI_Max [7]: 24100 MFI; EC50 (monkey CD3ε/δ-His): 0.0754 nM; EC50 (monkey CD3ε protein): 0.128 nM
2 | 10.4 | 1980 | 7.56 | 8780 | 0.1 | 0.16 | 63 | 0.05 | 0.06 | 7.03 | 9270 | F2B-hIgG1 (antibody, V domains shown, also called F2Bs) VH: EVQLVESGGGLVQPGRSLRLSCAASGFTFDDYAMHWVRQAPGKGLEWVSGISWNSGSIGYADSVKGRFTISRDNAKNSLYLQMNSLRAEDTALYYCAKDSRGYGDYRLGGAYWGQGTLVTVSS VL: not shown | binding result [3]: no binding (tested: 100 nM (initial concentration)); binding result (monkey CD3ε protein): no binding (tested: 100 nM (initial concentration))

From patent publication US20250136687A1 (SHANDONG SIMCERE BIOPHARMACEUTICAL, published 2025)
